Results: article PMC13227277, “Targeting CIRP and IL-6R-mediated microglial inflammation to improve outcomes in intracerebral hemorrhage” (Journal of Advanced Research, 2025)

Tests used:
IL-6R = test: Co-immunoprecipitation of CIRP and IL-6R; assay type: binding; conditions: Co-IP, n = 3
Method: Cells were divided into control and test groups. For transfection, solution A (plasmid diluted in Opti-MEM) and solution B (Lipofectamine 2000, Life Technologies, USA, diluted in Opti-MEM) were mixed at a 1:2 plasmid-to-lipofectamine ratio. After 6 h, the medium was replaced with DMEM, and GFP fluorescence was observed 24–48 h post-transfection to assess efficiency. Cells were divided into PBS, IL-6R, and CIRP (1 μg/mL for 24 h) groups for further analysis.
The beads were washed twice with lysis buffer to remove unbound proteins. Bound proteins were eluted by boiling the beads in sample buffer at 95°C for 3 min and subjected to Western blot analysis.

microglia = test: Cytokine mRNA and release in CIRP-stimulated microglia (RT-qPCR, ELISA); assay type: cell-based, mouse
Method: ELISA was used to quantify CIRP, MD2, IL-6, and TNF-α concentrations in blood and cerebrospinal fluid samples. Samples were processed and stored under standardized conditions to preserve protein integrity. Each target protein was measured using commercial ELISA kits, following the manufacturer’s instructions: Mouse CIRBP ELISA Kit (CSB-EL005440MO, CUSABIO), Mouse TNF-α ELISA Kit (EK282, Lianke Bio), Mouse IL-6 ELISA Kit (CSB-E04639m, CUSABIO), and […].
Primary cortical neurons were isolated from embryonic day 16–18 (E16–E18) C57BL/6 mouse embryos as previously described, and cultured in Neurobasal medium supplemented with B27 and GlutaMAX (Gibco).Primary microglial cells were isolated from the cortices of neonatal (day 1) C57BL/6J mice. After disinfection with 75 % ethanol, the skin and skull were removed, and the brains were placed in ice-cold HBSS. The meninges were peeled off, the cortex was collected, and the hippocampus was discarded. Tissues were digested with 0.25 % trypsin at 37 °C for 12 min, centrifuged at 1200 rpm for 5 min, and resuspended in complete medium. The suspension was transferred to a T75 flask with 15 mL of complete medium. […]
(§1) To mimic ischemic conditions, neurons at DIV7 were subjected to OGD. […] The supernatants were collected for subsequent CIRP quantification. […]

neurons = test: Neurons co-cultured with CIRP-treated microglial supernatant (CCK-8, immunofluorescence); assay type: cell-based, mouse
Method: Brain tissues were fixed in paraformaldehyde, dehydrated, and sectioned at 30 µm using a microtome (CM1900UV, Leica, Germany). Sections were floated onto glass slides and left overnight at room temperature. For cultured cells, after discarding the medium, cells were washed twice with PBS, fixed with precooled 4 % PFA at 4 °C for 10 min, and washed three times with PBS (10 min each) on a shaker. Cells were permeabilized with 0.3 % Triton X-100 in PBS for 20 min, blocked with 5 % donkey serum for 1 h, and incubated overnight at 4 °C with primary antibodies (Iba-1, Rabbit polyclonal, Wako; NeuN, Millipore; GFAP, CST; MBP, Abcam; SMI32, Millipore). The next day, sections were brought to room temperature, washed three times with PBST (PBS + Tween-20), and incubated with secondary antibodies for 1 h in the dark. […] Fluorescence was visualized using a DM4000B microscope and images were captured with a Leica TCS SP8 confocal microscope. […]
as §1
Microglia were exposed to 1, 10 100 μM concentrations of TCC or TC and PBS respectively for 24 h, and cell viability was measured. […] Cell viability was assessed using the Cell Counting Kit-8 (C0038, Beyotime) according to the manufacturer’s protocol. Absorbance at 450 nm was measured to determine cell viability.

IL-6Rα = conditions: macrophages; cited from earlier work
Description: Previous studies have shown that MD2 binds to a specific 15-amino acid segment of CIRP with high affinity, promoting inflammation. To target this interaction, we designed the peptides TCC and TC using macromolecular docking techniques, with SPR confirming that TCC reduced the binding affinity of CIRP to IL-6Rα.

[1] = biological target: T1, recombinant human IL-6 receptor alpha (IL-6Rα) (human, UniProt P08887 20-365); test: SPR; competitive inhibition: IL-6Rα on a CM5 chip saturated with TCC (100 times its affinity constant; 1.5 μg/mL), then CIRBP as analyte; conditions: both partners purified
T1 construct: Interleukin-6 receptor subunit alpha, human; UniProtKB P08887 is printed for the docking; also called rhIL-6Rα; rhIL-6R; source: recombinant
T1 sequence (looked up): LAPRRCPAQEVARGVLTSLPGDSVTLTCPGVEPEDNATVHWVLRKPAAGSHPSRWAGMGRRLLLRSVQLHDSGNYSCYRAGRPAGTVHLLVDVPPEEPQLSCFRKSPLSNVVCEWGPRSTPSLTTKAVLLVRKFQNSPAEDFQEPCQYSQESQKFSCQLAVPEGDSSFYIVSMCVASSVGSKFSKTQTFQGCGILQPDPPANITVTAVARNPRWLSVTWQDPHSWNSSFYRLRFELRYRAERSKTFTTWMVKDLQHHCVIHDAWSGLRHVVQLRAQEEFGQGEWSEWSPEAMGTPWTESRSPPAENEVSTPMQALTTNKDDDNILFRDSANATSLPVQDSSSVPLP

KD in the presence of the competitor TCC (1.5 μg/mL) [1]: 0.0177 µM
B1: recombinant human CIRP (cold-inducible RNA-binding protein) (natural protein, UniProt Q14011 1-172, looked up)
chain: MASDEGKLFVGGLSFDTNEQSLEQVFSKYGQISEVVVVKDRETQRSRGFGFVTFENIDDAKDAMMAMNGKSVDGRQIRVDQAGKSSDNRSRGYRGGSAGGRGFFRGGRGRGRGFSRGGGDRGYGGNRFESRSGGYGGSRDYYSSRSQSGGYSDRSSGGSYRDSYDSYATHNE
notes: UniProtKB Q14011 is printed for the docking; also called rhCIRP; human CIRBP; source: recombinant
interaction between CIRP and IL-6R (IL-6R): confirmed a interaction between CIRP and IL-6R | TNF-α and IL-6 mRNA in microglia (microglia; 24-hour CIRP stimulation with or without TCC, RT-qPCR, n = 3–6): upregulated the transcription of pro-inflammatory cytokines TNF-α and IL-6 in microglia | TNF-α secretion by microglia (microglia; rmCIRP 1 μg/mL, 24 h, ELISA, n = 3): the secretion of TNF-α was markedly increased | neuronal morphology and axonal integrity (neurons; 24-hour co-culture with microglial supernatant, immunofluorescence, n = 4–6): altered morphology and reduced axonal integrity | neuronal viability (neurons; microglial supernatant following CIRP with or without TCC, CCK-8, 24 h, n = 3): impaired neuronal viability | IL-6Rα as receptor for CIRP (IL-6Rα): high-affinity receptor for CIRP in macrophages
